Key:
Test in all cases: purified protein
Conditions in all cases: fatty acid varied 0-500 uM, 5 mM ATP, 0.5 mM CoA, 10 mM MgCl2, 1 mM NADH, pH 7.5, 30 C
purified protein [1] = substrate: CCCCCCCC(=O)O
purified protein [2] = substrate: CCCCCCCCCC(=O)O; type: biochemical, Solanum lycopersicum
purified protein [3] = substrate: CCCCCCCCCCCC(=O)O; type: biochemical, Solanum lycopersicum
purified protein [4] = substrate: CCCCCC(=O)O; type: biochemical, Solanum lycopersicum
purified protein [5] = substrate: CC(C)CCCCCCC(=O)O; type: biochemical, Solanum lycopersicum
purified protein [6] = substrate: CCCCCCC/C=C/C(=O)O; type: biochemical, Solanum lycopersicum

B1: Sl-AACS1 (Solanum lycopersicum) (protein)
chain: MNKFFKTSNIALRFFNGSVQLPAPTHRVRQLCQLAGSIESTDESRKLLEGVVTSPANYVPLTPISYLERAADVFGDRTSVVFGSSVKYTWEETHSRCLKLASALIQLGISRGDVVATLAPNVPAMQELHFAVPMAGAVLCTLNTRLDSSMVAYLLKHSETKMIFVDQQFLQIAQQALSLLSKDKTIKPPILILIPESNDSSPPVSNIHEYENLLSSGSSNFTIRWPKSEFDPISINYTSGTTSSPKGVVYNHRGAYLNSISAFLCHGMALMPTYLWTLPMFHCNGWCMNWGVAALGGTNVCLRHVSAKDIFESISVNKVTHMSAAPIVLSMMANASPNDRKPLLHKVEIMTGGSPPPPQILSKMEQLGFGVSHGYGLTETYSGATTCLWKPEWDSLPLEERAALKSRQGVKVLCIERVDVRDPETMENVPADGKSIGEIVCRGNTVMSGYLKDVKSTEEAFKGGWFHTGDVAVKHPDGYIEIKDRLKDIIISGGENISTLEVEGVLHSHPAVVEAAVVARPDDHWGQTPCAFVKLKEGSEEITSDEIIKYCRDHLPHYMVPRAVVFQDLPTTSTGKVQKFILREKAKALASLFNTDRKV
notes: full-length ORF in pET28b, His-tagged (tag removal not mentioned), E. coli BL21 Rosetta, Ni-NTA purified
- Km (purified protein [1]): 145.9 ± 10.4 µM
- kcat (purified protein [1]): 0.22 ± 0.0067 s⁻¹
- Km (purified protein [2]): 71.8 ± 9.6 µM
- kcat (purified protein [2]): 0.0933 ± 0.0033 s⁻¹
- Km (purified protein [3]): 68.1 ± 15.8 µM
- kcat (purified protein [3]): 0.07 ± 0.005 s⁻¹
- Km (purified protein [4]): 214.8 ± 40 µM
- kcat (purified protein [4]): 0.23 ± 0.02 s⁻¹
- Km (purified protein [5]): 82.1 ± 10.3 µM
- kcat (purified protein [5]): 0.227 ± 0.01 s⁻¹
- Km (purified protein [6]): 36.4 ± 4.5 µM
- kcat (purified protein [6]): 0.0983 ± 0.0033 s⁻¹

— PMC7386920, “Evolution of a plant gene cluster in Solanaceae and emergence of metabolic diversity” (eLife, 2020)
